The experiment has as its system coxsackievirus B3 (CVB3-GFP). The experiment is classed as cell-based. The note with it: HeLa cells, replicate R1; for Percent Infected R1: GFP-positive cells within RFP-positive gate.

B1: TRIM43: human RING type E3 ligase expressed from lentiviral vector (protein, UniProt Q96BQ3 1-446, looked up)
Tripartite motif-containing …: MDSDFSHAFQKELTCVICLNYLVDPVTICCGHSFCRPCLCLSWEEAQSPANCPACREPSPKMDFKTNILLKNLVTIARKASLWQFLSSEKQICGTHRQTKKMFCDMDKSLLCLLCSNSQEHGAHKHHPIEEAAEEHREKLLKQMRILWKKIQENQRNLYEEGRTAFLWRGNVVLRAQMIRNEYRKLHPVLHKEEKQHLERLNKEYQEIFQQLQRSWVKMDQKSKHLKEMYQELMEMCHKPDVELLQDLGDIVARSESVLLHMPQPVNPELTAGPITGLVYRLNRFRVEISFHFEVTNHNIRLFEDVRSWMFRRGPLNSDRSDYFAAWGARVFSFGKHYWELDVDNSCDWALGVCNNSWIRKNSTMVNSEDIFLLLCLKVDNHFNLLTTSPVFPHYIEKPLGRVGVFLDFESGSVSFLNVTKSSLIWSYPAGSLTFPVRPFFYTGHR
On to B1, for which the “Percent Infected R1” value worked out at 61.4% and the “Z score R1” value is −0.346.

B2: TRIM37: human RING type E3 ligase expressed from lentiviral vector (protein, UniProt O94972 1-964, looked up)
E3 ubiquitin-protein ligase …: MDEQSVESIAEVFRCFICMEKLRDARLCPHCSKLCCFSCIRRWLTEQRAQCPHCRAPLQLRELVNCRWAEEVTQQLDTLQLCSLTKHEENEKDKCENHHEKLSVFCWTCKKCICHQCALWGGMHGGHTFKPLAEIYEQHVTKVNEEVAKLRRRLMELISLVQEVERNVEAVRNAKDERVREIRNAVEMMIARLDTQLKNKLITLMGQKTSLTQETELLESLLQEVEHQLRSCSKSELISKSSEILMMFQQVHRKPMASFVTTPVPPDFTSELVPSYDSATFVLENFSTLRQRADPVYSPPLQVSGLCWRLKVYPDGNGVVRGYYLSVFLELSAGLPETSKYEYRVEMVHQSCNDPTKNIIREFASDFEVGECWGYNRFFRLDLLANEGYLNPQNDTVILRFQVRSPTFFQKSRDQHWYITQLEAAQTSYIQQINNLKERLTIELSRTQKSRDLSPPDNHLSPQNDDALETRAKKSACSDMLLEGGPTTASVREAKEDEEDEEKIQNEDYHHELSDGDLDLDLVYEDEVNQLDGSSSSASSTATSNTEENDIDEETMSGENDVEYNNMELEEGELMEDAAAAGPAGSSHGYVGSSSRISRRTHLCSAATSSLLDIDPLILIHLLDLKDRSSIENLWGLQPRPPASLLQPTASYSRKDKDQRKQQAMWRVPSDLKMLKRLKTQMAEVRCMKTDVKNTLSEIKSSSAASGDMQTSLFSADQAALAACGTENSGRLQDLGMELLAKSSVANCYIRNSTNKKSNSPKPARSSVAGSLSLRRAVDPGENSRSKGDCQTLSEGSPGSSQSGSRHSSPRALIHGSIGDILPKTEDRQCKALDSDAVVVAVFSGLPAVEKRRKMVTLGANAKGGHLEGLQMTDLENNSETGELQPVLPEGASAAPEEGMSSDSDIECDTENEEQEEHTSVGGFHDSFMVMTQPPDEDTHSSFPDGEQIGPEDLSFNTDENSGR
modifications: lentiviral expression
notes: human RING type E3 ligase expressed from lentiviral vector
For the molecule B2, the “Percent Infected R1” value came out at 58.8% and the “Z score R1” value is −0.379.

B3: TRIM40: human RING type E3 ligase expressed from lentiviral vector (protein, UniProt Q6P9F5 1-258, looked up)
E3 ubiquitin ligase TRIM40: MIPLQKDNQEEGVCPICQESLKEAVSTNCGHLFCRVCLTQHVEKASASGVFCCPLCRKPCSEEVLGTGYICPNHQKRVCRFCEESRLLLCVECLVSPEHMSHHELTIENALSHYKERLNRRSRKLRKDIAELQRLKAQQEKKLQALQFQVDHGNHRLEAGPESQHQTREQLGALPQQWLGQLEHMPAEAARILDISRAVTQLRSLVIDLERTAKELDTNTLKNAGDLLNRSAPQKLEVIYPQLEKGVSELLLQPPQKL
modifications: lentiviral expression
notes: as for B2
On to B3, for which the “Percent Infected R1” value is 62.8% and the “Z score R1” value is on record as −0.328.

B4: TRIM39: human RING type E3 ligase expressed from lentiviral vector (protein, UniProt Q9HCM9 1-518, looked up)
E3 ubiquitin-protein ligase …: MAETSLLEAGASAASTAAALENLQVEASCSVCLEYLKEPVIIECGHNFCKACITRWWEDLERDFPCPVCRKTSRYRSLRPNRQLGSMVEIAKQLQAVKRKIRDESLCPQHHEALSLFCYEDQEAVCLICAISHTHRAHTVVPLDDATQEYKEKLQKCLEPLEQKLQEITRCKSSEEKKPGELKRLVESRRQQILREFEELHRRLDEEQQVLLSRLEEEEQDILQRLRENAAHLGDKRRDLAHLAAEVEGKCLQSGFEMLKDVKSTLEKNIPRKFGGSLSTICPRDHKALLGLVKEINRCEKVKTMEVTSVSIELEKNFSNFPRQYFALRKILKQLIADVTLDPETAHPNLVLSEDRKSVKFVETRLRDLPDTPRRFTFYPCVLATEGFTSGRHYWEVEVGDKTHWAVGVCRDSVSRKGELTPLPETGYWRVRLWNGDKYAATTTPFTPLHIKVKPKRVGIFLDYEAGTLSFYNVTDRSHIYTFTDTFTEKLWPLFYPGIRAGRKNAAPLTIRPPTDWE
Take B4: the “Percent Infected R1” value is reported as 58.6% and the “Z score R1” value was −0.382.

B5: TRIM35: human RING type E3 ligase expressed from lentiviral vector (protein, UniProt Q9UPQ4 1-493, looked up)
E3 ubiquitin-protein ligase …: MERSPDVSPGPSRSFKEELLCAVCYDPFRDAVTLRCGHNFCRGCVSRCWEVQVSPTCPVCKDRASPADLRTNHTLNNLVEKLLREEAEGARWTSYRFSRVCRLHRGQLSLFCLEDKELLCCSCQADPRHQGHRVQPVKDTAHDFRAKCRNMEHALREKAKAFWAMRRSYEAIAKHNQVEAAWLEGRIRQEFDKLREFLRVEEQAILDAMAEETRQKQLLADEKMKQLTEETEVLAHEIERLQMEMKEDDVSFLMKHKSRKRRLFCTMEPEPVQPGMLIDVCKYLGSLQYRVWKKMLASVESVPFSFDPNTAAGWLSVSDDLTSVTNHGYRVQVENPERFSSAPCLLGSRVFSQGSHAWEVALGGLQSWRVGVVRVRQDSGAEGHSHSCYHDTRSGFWYVCRTQGVEGDHCVTSDPATSPLVLAIPRRLRVELECEEGELSFYDAERHCHLYTFHARFGEVRPYFYLGGARGAGPPEPLRICPLHISVKEELDG
Turning to B5, the “Percent Infected R1” value is 66.3% and the “Z score R1” value is reported as −0.284.

B6: TRIM45: human RING type E3 ligase expressed from lentiviral vector (protein, UniProt Q9H8W5 1-580, looked up)
E3 ubiquitin-protein ligase …: MSENRKPLLGFVSKLTSGTALGNSGKTHCPLCLGLFKAPRLLPCLHTVCTTCLEQLEPFSVVDIRGGDSDTSSEGSIFQELKPRSLQSQIGILCPVCDAQVDLPMGGVKALTIDHLAVNDVMLESLRGEGQGLVCDLCNDREVEKRCQTCKANLCHFCCQAHRRQKKTTYHTMVDLKDLKGYSRIGKPILCPVHPAEELRLFCEFCDRPVCQDCVVGEHREHPCDFTSNVIHKHGDSVWELLKGTQPHVEALEEALAQIHIINSALQKRVEAVAADVRTFSEGYIKAIEEHRDKLLKQLEDIRAQKENSLQLQKAQLEQLLADMRTGVEFTEHLLTSGSDLEILITKRVVVERLRKLNKVQYSTRPGVNDKIRFCPQEKAGQCRGYEIYGTINTKEVDPAKCVLQGEDLHRAREKQTASFTLLCKDAAGEIMGRGGDNVQVAVVPKDKKDSPVRTMVQDNKDGTYYISYTPKEPGVYTVWVCIKEQHVQGSPFTVMVRRKHRPHSGVFHCCTFCSSGGQKTARCACGGTMPGGYLGCGHGHKGHPGHPHWSCCGKFNEKSECTWTGGQSAPRSLLRTVAL
Turning to B6, the “Percent Infected R1” value came out at 63.9% and the “Z score R1” value was −0.314.

B7: TRIM46: human RING type E3 ligase expressed from lentiviral vector (protein, UniProt Q7Z4K8 1-759, looked up)
Tripartite motif-containing …: MAEGEDMQTFTSIMDALVRISTSMKNMEKELLCPVCQEMYKQPLVLPCTHNVCQACAREVLGQQGYIGHGGDPSSEPTSPASTPSTRSPRLSRRTLPKPDRLDRLLKSGFGTYPGRKRGALHPQVIMFPCPACQGDVELGERGLAGLFRNLTLERVVERYRQSVSVGGAILCQLCKPPPLEATKGCTECRATFCNECFKLFHPWGTQKAQHEPTLPTLSFRPKGLMCPDHKEEVTHYCKTCQRLVCQLCRVRRTHSGHKITPVLSAYQALKDKLTKSLTYILGNQDTVQTQICELEEAVRHTEVSGQQAKEEVSQLVRGLGAVLEEKRASLLQAIEECQQERLARLSAQIQEHRSLLDGSGLVGYAQEVLKETDQPCFVQAAKQLHNRIARATEALQTFRPAASSSFRHCQLDVGREMKLLTELNFLRVPEAPVIDTQRTFAYDQIFLCWRLPPHSPPAWHYTVEFRRTDVPAQPGPTRWQRREEVRGTSALLENPDTGSVYVLRVRGCNKAGYGEYSEDVHLHTPPAPVLHFFLDSRWGASRERLAISKDQRAVRSVPGLPLLLAADRLLTGCHLSVDVVLGDVAVTQGRSYWACAVDPASYLVKVGVGLESKLQESFQGAPDVISPRYDPDSGHDSGAEDATVEASPPFAFLTIGMGKILLGSGASSNAGLTGRDGPTAGCTVPLPPRLGICLDYERGRVSFLDAVSFRGLLECPLDCSGPVCPAFCFIGGGAVQLQEPVGTKPERKVTIGGFAKLD
modifications: lentiviral expression
notes: as for B2
As to B7, the “Percent Infected R1” value stood at 60.8% and the “Z score R1” value is given as −0.354.

B8: TRIM38: human RING type E3 ligase expressed from lentiviral vector (protein, UniProt O00635 1-465, looked up)
E3 ubiquitin-protein ligase …: MASTTSTKKMMEEATCSICLSLMTNPVSINCGHSYCHLCITDFFKNPSQKQLRQETFCCPQCRAPFHMDSLRPNKQLGSLIEALKETDQEMSCEEHGEQFHLFCEDEGQLICWRCERAPQHKGHTTALVEDVCQGYKEKLQKAVTKLKQLEDRCTEQKLSTAMRITKWKEKVQIQRQKIRSDFKNLQCFLHEEEKSYLWRLEKEEQQTLSRLRDYEAGLGLKSNELKSHILELEEKCQGSAQKLLQNVNDTLSRSWAVKLETSEAVSLELHTMCNVSKLYFDVKKMLRSHQVSVTLDPDTAHHELILSEDRRQVTRGYTQENQDTSSRRFTAFPCVLGCEGFTSGRRYFEVDVGEGTGWDLGVCMENVQRGTGMKQEPQSGFWTLRLCKKKGYVALTSPPTSLHLHEQPLLVGIFLDYEAGVVSFYNGNTGCHIFTFPKASFSDTLRPYFQVYQYSPLFLPPPGD
modifications: lentiviral expression
notes: as for B2
In the case of B8, the “Percent Infected R1” value is recorded as 60.7% and the “Z score R1” value is reported as −0.355.

B9: TRIM44: human RING type E3 ligase expressed from lentiviral vector (protein, UniProt Q96DX7 1-344, looked up)
Tripartite motif-containing …: MASGVGAAFEELPHDGTCDECEPDEAPGAEEVCRECGFCYCRRHAEAHRQKFLSHHLAEYVHGSQAWTPPADGEGAGKEEAEVKVEQEREIESEAGEESESEEESESEEESETEEESEDESDEESEEDSEEEMEDEQESEAEEDNQEEGESEAEGETEAESEFDPEIEMEAERVAKRKCPDHGLDLSTYCQEDRQLICVLCPVIGAHQGHQLSTLDEAFEELRSKDSGGLKAAMIELVERLKFKSSDPKVTRDQMKMFIQQEFKKVQKVIADEEQKALHLVDIQEAMATAHVTEILADIQSHMDRLMTQMAQAKEQLDTSNESAEPKAEGDEEGPSGASEEEDT
modifications: lentiviral expression
notes: as for B2
In the case of B9, the “Percent Infected R1” value stood at 61.7% and the “Z score R1” value was −0.342.
